In publication PMC6468306 (Nucleic Acids Research, 2019):
Changes are numbered by the printed parent chain. In names and notes the source's numbering stands. Where two headings read alike, the source gives them in different places.

B1: GST-fused CSB C-terminal region (residues 1386-1493) (domain or fragment)
chain: SSSLLAKMRARNHLILPERLESESGHLQEASALLPTTEHDDLLVEMRNFIAFQAHTDGQASTREILQEFESKLSASQSCVFRELLRNLCTFHRTSGGEGIWKLKPEYC
B2: GST-fused CSB WHD (residues 1401-1493), wild type (domain or fragment)
chain: LPERLESESGHLQEASALLPTTEHDDLLVEMRNFIAFQAHTDGQASTREILQEFESKLSASQSCVFRELLRNLCTFHRTSGGEGIWKLKPEYC
B3: GST-fused CSB WHD, Q1413R variant allele (domain or fragment)
chain: B2 chain with Q13R
B4: CSB WHD (residues 1401-1493) with the Q1413R variant allele, GST cleaved (domain or fragment)
chain: B2 chain with Q13R
B5: GST-fused CSB C-terminal region (residues 1412-1493) (domain or fragment)
chain: LQEASALLPTTEHDDLLVEMRNFIAFQAHTDGQASTREILQEFESKLSASQSCVFRELLRNLCTFHRTSGGEGIWKLKPEYC

Assays:
[1] = molecular target: T1, ubiquitin (Ub) (mouse, UniProt P0CG49 1-76); assay: pull-down
[2] = molecular target: T1, ubiquitin (Ub); assay: SPR
[3] = molecular target: T1, ubiquitin (Ub); assay: SPR; remark: listed apart in the source
[4] = molecular target: M1-linked diUb (M1-Ub2) (human, UniProt P0CG47); assay: pull-down
[5] = molecular target: K48-Ub2 synthesized from K48R Ub and D77 Ub (for crystallization) (mouse, UniProt P0CG49, K48R | D77); assay: crystal structure

| Binder | binding result [1] | Kd [3] [µM] | other results |
| --- | --- | --- | --- |
| B1 | binds | – | – |
| B2 | – | 35.6 | Kd [2]: 36.1 µM; binding result [4]: binds |
| B3 | – | 51.5 | – |
| B4 | – | – | binding result [5]: binds |
| B5 | binds | – | – |
